The text below walks through data of paper PMC5478280.

The target in experiment [1] is Csy complex (type I-F crRNA-guided surveillance complex), wild type (P. aeruginosa (strain PA14)) (UniProt Q02ML9). Nature of the experiment: cryo-EM structure.
For experiment [2], the target named is Csy complex with Cas7f K85A (P. aeruginosa (strain PA14)) (UniProt Q02ML9). Nature of the experiment: SPR.

The term stoichiometry N denotes the number of molecules, sites or subunits per partner or assembly.

“anti-CRISPR protein AcrF1 (natural protein)” came in with a stoichiometry N in experiment [1] of 2. The same substance gave a kd1 (dissociation rate) in experiment [2] of 0.00031 s⁻¹.

For the substance “anti-CRISPR protein AcrF2 (natural protein)”, in experiment [1], the stoichiometry N is 1.
